The record followed here is the RNAGym collection of RNA variant scans (doi:10.7554/elife.80360).

B1: Hairpin Ribozyme (parent)
chain: GUCCUCUUUCACGUGCGCGUGAAAGAGAGAAGUGAACCAGAGAAACACACGUUGUGGUAUAUUACCUGGUA

Variants of B1 are the subject of the data set. As to the kind of experiment: self-cleavage, relative activity (ratio to wild type); higher = more cleavage; co-transcriptional.
As to G42U A61C, the self-cleavage stood at 0.193.

Turning to G32U U53G, the self-cleavage was found to be 0.103.

Take G1C G25U: the self-cleavage amounted to 0.211.

As to U7A G13C, the self-cleavage is 0.778.

As to A22C A47G, the self-cleavage was 0.187.

Take G15C A64U: the self-cleavage was determined as 0.186.

Turning to A22G A71C, the self-cleavage turned out to be 1.28.

As to A28U A47G, the self-cleavage stood at 0.0453.

As to A43G G57A, the self-cleavage was 0.198.

Consider C18U U33A, for which the self-cleavage worked out at 0.242.

On to C16A G17C, for which the self-cleavage is 0.85.

With A43G, the self-cleavage was determined as 0.148.

For A30C U55G, the self-cleavage was found to be 0.0965.

Regarding A35C A43U, the self-cleavage is 0.194.

As to A23C A59C, the self-cleavage came to 0.193.

In the case of A30G C37G, the self-cleavage came out at 0.0733.

In the case of U7G C48A, the self-cleavage came to 0.142.

In the case of G32C U58A, the self-cleavage was 0.116.

With G34U C37A, the self-cleavage was 0.946.

In the case of G13U G19C, the self-cleavage stood at 0.686.

Consider G34C C37U, for which the self-cleavage worked out at 1.34.

For the variant C10G A43C, the self-cleavage came to 0.128.

Take G15C G68A: the self-cleavage was found to be 0.324.

With G27U G69C, the self-cleavage was 0.2.

On to A26G C46A, for which the self-cleavage was found to be 0.0799.

Turning to G40A G56U, the self-cleavage was found to be 0.0994.

For the variant U9G G54C, the self-cleavage came to 0.341.

As to U8C A11U, the self-cleavage stood at 0.252.

Turning to A24U U53G, the self-cleavage was 0.674.

For the variant G40C G51C, the self-cleavage was 0.127.

As to A26C G57A, the self-cleavage came out at 0.141.

With U5C G51U, the self-cleavage came out at 0.704.

Turning to C12U G25A, the self-cleavage was 0.482.

Regarding C12G A43U, the self-cleavage amounted to 0.196.

With A11C C66A, the self-cleavage is 0.317.

As for A36G A61C, the self-cleavage worked out at 0.328.

Turning to G21C A47C, the self-cleavage is 0.254.

As for C18U G51C, the self-cleavage was 0.881.

For A11G G19U, the self-cleavage amounted to 0.979.

Turning to U20G A26C, the self-cleavage was 0.483.

Consider U20A G32A, for which the self-cleavage was determined as 0.18.

G13A U58G: the self-cleavage worked out at 0.594.

As to U14G G21U, the self-cleavage was found to be 0.625.

With C10A G51U, the self-cleavage was determined as 0.678.

U14G C18G: the self-cleavage turned out to be 0.694.

Take U2G U33C: the self-cleavage was 0.0578.

For the variant C38U A64U, the self-cleavage came to 0.301.

Turning to A49G U62C, the self-cleavage amounted to 0.154.

On to G27U A28U, for which the self-cleavage worked out at 0.148.

Turning to G21U G57A, the self-cleavage is 0.148.

In the case of A26G G54U, the self-cleavage stood at 0.349.

For the variant A24C A44U, the self-cleavage was found to be 0.17.

Turning to U20G A22G, the self-cleavage is 0.959.

Consider G19A A35U, for which the self-cleavage turned out to be 0.607.

Take A44G U58A: the self-cleavage is 0.17.

For U14A U70A, the self-cleavage is 0.863.

For the variant A28G A30U, the self-cleavage was 0.0576.

Take G25A G40A: the self-cleavage was 0.191.

In the case of G29A U60C, the self-cleavage turned out to be 0.144.

With G29A U60A, the self-cleavage came out at 0.137.

Consider A30U G57U, for which the self-cleavage amounted to 0.175.

Take U7G U58C: the self-cleavage was found to be 0.813.

For the variant G1C G68C, the self-cleavage is 0.379.

As to A41G U60C, the self-cleavage is 1.23.

With G27C A31U, the self-cleavage was determined as 0.223.

For the variant A26C G42A, the self-cleavage came to 0.12.

Take C38U A43G: the self-cleavage worked out at 0.0885.

With U60G U70G, the self-cleavage was found to be 0.514.

As for A35G A71U, the self-cleavage is 0.837.

With C16A, the self-cleavage amounted to 0.903.

As to C3A A64U, the self-cleavage worked out at 0.249.

For G32A G57A, the self-cleavage worked out at 0.0905.

As to A64G A71U, the self-cleavage was 0.287.

Consider U53G A59C, for which the self-cleavage was determined as 0.166.

A23G A41U: the self-cleavage amounted to 1.09.

With C10G G42A, the self-cleavage worked out at 0.185.

G34C A47U: the self-cleavage stood at 0.465.

Take A26G G32A: the self-cleavage was determined as 0.103.

On to C10U C48U, for which the self-cleavage is 0.209.

For G54A U63C, the self-cleavage turned out to be 0.216.

On to C46U A64G, for which the self-cleavage amounted to 0.021.

For the variant A28U A44C, the self-cleavage came to 0.179.

In the case of G29U A30C, the self-cleavage is 0.154.

Take A44C U53C: the self-cleavage came to 0.108.

Turning to G29U G69U, the self-cleavage came to 0.099.

For U67G G68C, the self-cleavage was 0.177.

As for C6A U63C, the self-cleavage came out at 0.191.

Turning to U14C A41G, the self-cleavage turned out to be 0.678.

As for A41U U58G, the self-cleavage came to 1.02.

With C66G U67G, the self-cleavage stood at 0.211.

For the variant C38G G42C, the self-cleavage stood at 0.134.

Regarding G27C A41G, the self-cleavage amounted to 0.234.

With G27C G34U, the self-cleavage was determined as 0.779.

As to G21U G40U, the self-cleavage is 0.147.

Regarding A26U G68C, the self-cleavage was found to be 0.103.

As for G21C A59U, the self-cleavage was 0.204.

Consider G19U U60G, for which the self-cleavage is 0.444.

Consider G15A G54U, for which the self-cleavage stood at 0.737.

With A39G A59U, the self-cleavage came out at 0.153.

As for G17A G19C, the self-cleavage amounted to 0.969.

Turning to C10U U70A, the self-cleavage was found to be 0.704.

Take C46U C50U: the self-cleavage was 0.227.

For C18A G54A, the self-cleavage is 0.591.

Take C3A A22U: the self-cleavage came to 0.702.

As for C4G C12U, the self-cleavage is 0.187.

Take A43C C46G: the self-cleavage is 0.245.

As for C6U A39C, the self-cleavage worked out at 0.504.

With C10U C12G, the self-cleavage stood at 0.612.

On to G27C C37A, for which the self-cleavage is 0.121.

C4U G29C: the self-cleavage stood at 0.108.

On to U53G G56C, for which the self-cleavage was found to be 0.125.

As for G19C A35U, the self-cleavage turned out to be 0.574.

Take U55A G69U: the self-cleavage is 0.146.

On to U9A A44C, for which the self-cleavage was 0.132.

On to A23C U53C, for which the self-cleavage was 0.702.

For the variant U8G A41G, the self-cleavage was determined as 0.673.

Turning to C48G U60C, the self-cleavage was determined as 0.0854.

For A24G G51U, the self-cleavage is 0.881.

With C37U U55G, the self-cleavage turned out to be 0.159.

With U8C A43C, the self-cleavage is 0.126.

For the variant U9G A47C, the self-cleavage was 0.406.

On to G15C G40U, for which the self-cleavage amounted to 0.23.

Take C12U U53A: the self-cleavage was 0.974.

For C18G G69A, the self-cleavage was 0.378.

On to C12A A24G, for which the self-cleavage is 0.676.

C12U A24G: the self-cleavage was 0.892.

With U62A C66A, the self-cleavage worked out at 0.12.

In the case of U20C A39C, the self-cleavage turned out to be 0.562.

Regarding U14C C16A, the self-cleavage came to 0.922.

In the case of C18U U58C, the self-cleavage is 1.17.

For the variant G42U U62G, the self-cleavage was 0.22.

Regarding G21U A24U, the self-cleavage is 0.78.

C38U A45C: the self-cleavage worked out at 0.108.

For the variant C6G U53C, the self-cleavage turned out to be 0.329.

With G32C A47G, the self-cleavage was 0.0562.

For the variant A26U A64G, the self-cleavage was 0.399.

Consider A23U G54A, for which the self-cleavage was found to be 0.551.

On to G1U C16G, for which the self-cleavage stood at 0.127.

Consider A23C A28G, for which the self-cleavage was 0.977.

Regarding U9C U60A, the self-cleavage was 0.769.

As to A36G U53G, the self-cleavage was 0.507.

In the case of A41G A49U, the self-cleavage came to 0.105.

For the variant A43C G51U, the self-cleavage was determined as 0.0904.

For the variant C16G U67C, the self-cleavage stood at 0.155.

Regarding C37G G54U, the self-cleavage turned out to be 0.255.

For the variant C6A A64C, the self-cleavage turned out to be 0.148.

Consider G13C G42A, for which the self-cleavage worked out at 0.208.

Turning to U5G U53G, the self-cleavage was found to be 0.179.

For A41G C65A, the self-cleavage amounted to 0.693.

As for C16U G42A, the self-cleavage was 0.225.

Turning to A24U G57C, the self-cleavage was found to be 0.181.

In the case of U5G G21U, the self-cleavage came out at 0.324.

Take C3U A41C: the self-cleavage was 0.983.

For U7C G15U, the self-cleavage turned out to be 1.05.

With U8C G56U, the self-cleavage was 0.167.

With G15U U53G, the self-cleavage was 0.645.

As to A41G G68C, the self-cleavage is 0.508.

As to A41G G51A, the self-cleavage worked out at 1.09.

U58C U67A: the self-cleavage was 0.231.

In the case of U33C G34U, the self-cleavage is 0.348.

Turning to G51A U52G, the self-cleavage worked out at 0.981.

Regarding U7G G68A, the self-cleavage came to 0.3.

In the case of G29A A43U, the self-cleavage is 0.0816.

On to G17U A35C, for which the self-cleavage amounted to 1.03.

For G19A G42C, the self-cleavage was 0.289.

With G56C U60A, the self-cleavage is 0.106.

On to C12G C48U, for which the self-cleavage turned out to be 0.193.
